Measured values taken from paper PMC10317887, “Hypoglycaemia frequency and physiological response after double or triple doses of once-weekly insulin icodec vs once-daily insulin glargine U100 in type 2 diabetes: a randomised crossover trial” (Diabetologia, 2023).

Experiments:
[1] = system: individuals with type 2 diabetes; assay: Hypoglycaemic symptoms score (HSS, Edinburgh Hypoglycaemia Scale) during hypoglycaemia induction; settings: for Change in HSS at PG3.0 mmol/l, least-squares mean: change from baseline PG5.5 mmol/l; for Change in HSS at PG3.0 mmol/l, least-squares mean / Change in HSS at PGnadir, least-squares mean: subgroup; for Change in HSS at PGnadir, least-squares mean: change from baseline
Method: (§2) Hypoglycaemic response assessments were conducted at predefined PG levels during hypoglycaemia development and recovery (Fig. 1b). Hypoglycaemic symptoms score (HSS), hypoglycaemia awareness, counterregulatory hormones, vital signs and cognitive function tests were assessed at baseline (PG5.5 mmol/l), during hypoglycaemia development (PG3.9 mmol/l and PG3.0 mmol/l) and at PGnadir.
The validated Edinburgh Hypoglycaemia Scale was used to determine hypoglycaemic symptoms, which were classified into 11 different autonomic, neuroglycopenic and non-specific symptoms of hypoglycaemia [14, 15]. The participant scored each of the 11 symptoms on a seven-point scale (1=‘not at all’, while 7=‘a great deal’). The total score was derived as 11 multiplied by the mean score for all symptoms.
(§3) Changes in HSS, vital signs and cognitive function tests from baseline (PG5.5 mmol/l) to PG3.0 mmol/l and to PGnadir were compared between insulin products at each of the two dose levels using the same approach as described for PGnadir, except that no logarithmic transformation was done and that the baseline value was included as a covariate. Least-squares means, treatment difference and 95% CI were derived.

[2] = system: individuals with type 2 diabetes; assay: Cognitive function: trail making B (TMB) test; settings: for Change in TMB at PG3.0 mmol/l, least-squares mean / Change in TMB at PGnadir, least-squares mean: change from baseline, subgroup
Method: as §2
(§4) Cognitive function was assessed using the trail making B (TMB) test, the digit symbol substitution test (DSST) and the four-choice reaction time (4CRT) test. In the TMB test from the Halstead Reitan Neuropsychological Battery [16, 17], the participant connects 25 circles distributed on a chart in the correct sequence as quickly as possible. The circles contain a number (1–13) or a letter (A–L), and the correct sequence consists of alternating numbers and letters (i.e. 1–A–2–B–3 etc). The test result is the time needed to complete the task correctly. In the DSST, which is a subtest of the Wechsler Adult Intelligence Scale - Revised [18], nine digits are represented by nine different symbols. During 90 s, the participant is requested to write down the appropriate symbol for as many numbers as possible in a given array. The test result is the number of correct responses. […] In 100 cycles, the participant responds by pressing the corresponding position on a keypad. The test result has two components: percentage of correct answers and the mean response time.
as §3

glucagon = assay: Counterregulatory hormone response: plasma glucagon (ELISA); type: in vivo, human; settings: for Glucagon at PG3.0 mmol/l, estimated geometric mean / Glucagon at PGnadir, estimated geometric mean: plasma, subgroup
Method: (§1) Plasma concentrations of glucagon were measured by an enzyme-linked immunosorbent assay (Mercodia AB, Uppsala, Sweden). Plasma concentrations of adrenaline (epinephrine) and noradrenaline (norepinephrine) were measured by liquid chromatography-mass spectrometry (Thermo Fisher Scientific, Dreieich, Germany). Serum concentrations of cortisol and growth hormone were measured by electrochemiluminescent immunoassays (Roche Diagnostics, Mannheim, Germany).

[3] = system: individuals with type 2 diabetes; assay: Vital signs during hypoglycaemia induction; settings: for Change in SBP at PG3.0 mmol/l, least-squares mean / Change in pulse at PG3.0 mmol/l, least-squares mean / Change in DBP at PGnadir, least-squares mean / Change in SBP at PGnadir, least-squares mean / Change in pulse at PGnadir, least-squares mean / Change in DBP at PG3.0 mmol/l, least-squares mean: change from baseline, subgroup
Method: Hypoglycaemic response assessments were conducted at predefined PG levels during hypoglycaemia development and recovery (Fig. 1b). Hypoglycaemic symptoms score (HSS), hypoglycaemia awareness, counterregulatory hormones, vital signs and cognitive function tests were assessed at baseline (PG5.5 mmol/l), during hypoglycaemia development (PG3.9 mmol/l and PG3.0 mmol/l) and at PGnadir. In addition, counterregulatory hormones and vital signs were assessed during recovery from hypoglycaemia at PG3.0 mmol/l, PG3.9 mmol/l and PG5.5 mmol/l.
Vital signs (diastolic blood pressure, systolic blood pressure and pulse) were measured after ≥5 min of rest in a supine position.
as §3

[4] = system: individuals with type 2 diabetes; assay: Cognitive function: four-choice reaction time (4CRT) test; settings: for Change in 4CRT correctness at PG3.0 mmol/l, least-squares mean / Change in 4CRT response time at PG3.0 mmol/l, least-squares mean / Change in 4CRT correctness at PGnadir, least-squares mean / Change in 4CRT response time at PGnadir, least-squares mean: change from baseline, subgroup
Method: as §2, §4, §3

[5] = system: individuals with type 2 diabetes; assay: Continuous glucose monitoring (CGM) after double and triple doses
Method: In addition to self-measured PG, which was performed throughout the trial, and PG measurements performed at the clinical site, continuous glucose monitoring (CGM) was conducted from the first dose of the first treatment period until the end of the second treatment period (Dexcom G6; Dexcom, San Diego, CA, USA). CGM data were visible to the participants and the investigators but were not used for titration of basal insulin dose or for reporting hypoglycaemia.
CGM data were summarised from the time of double or triple dose until the next insulin administration (excluding the period of hypoglycaemia induction experiments), thereby eliminating any confounding effect of other insulin.

[6] = system: individuals with type 2 diabetes; assay: Hypoglycaemia awareness question 'Do you feel hypo?' during hypoglycaemia induction; type: in vivo, human; settings: subgroup
Method: Hypoglycaemia awareness was determined by asking the question, ‘Do you feel hypo?’, to the participant.

adrenaline (epinephrine) = assay: Counterregulatory hormone response: plasma adrenaline (LC-MS); type: in vivo, human; settings: for Adrenaline at PG3.0 mmol/l, estimated geometric mean / Adrenaline at PGnadir, estimated geometric mean: plasma, subgroup
Method: as §1

[7] = system: individuals with type 2 diabetes; assay: Safety: adverse events and non-induced hypoglycaemic episodes during treatment periods
Source text: Safety assessments during the trial included adverse events (AEs), hypoglycaemic episodes (other than those induced), vital signs (other than those assessed during hypoglycaemia induction), electrocardiograms, physical examinations and clinical laboratory assessments (haematology, biochemistry and urinalysis).
AEs and hypoglycaemic episodes (other than those induced) during the treatment periods were summarised. The end of each treatment period was defined as 7 days after the last icodec dose and 2 days after the last glargine U100 dose. […] Hypoglycaemic episodes were classified as level 1 (PG <3.9 mmol/l and ≥3.0 mmol/l), level 2 (PG <3.0 mmol/l) and level 3 (severe cognitive impairment requiring assistance for recovery) [20].

[8] = double dose, n=17 icodec, 15 glargine U100
[9] = double dose, n=20 icodec, 19 glargine U100
[10] = triple dose, n=20 icodec, 28 glargine U100
[11] = triple dose, n=20 icodec, 29 glargine U100
[12] = triple dose, listed as Insulin icodec
[13] = double dose, n=16 icodec, 15 glargine U100
[14] = triple dose, n=19 icodec, 28 glargine U100
[15] = double dose, n=18 icodec, 17 glargine U100
[16] = triple dose, n=20 icodec, 27 glargine U100
[17] = after double dose: first 2 weeks (icodec) / first 48 h (glargine U100), participants with clinically significant hypoglycaemia during induction
[18] = after triple dose: first week (icodec) / first 48 h (glargine U100), participants with clinically significant hypoglycaemia during induction
[19] = treatment periods, outside hypoglycaemia induction experiments

## insulin icodec
[1]; double dose
  Change in HSS at PG3.0 mmol/l, treatment difference (95% CI) icodec vs glargine U100: 1.2 (-1.5, 4.0)
  Change in HSS at PGnadir, treatment difference (95% CI) icodec vs glargine U100: -0.3 (-4.0, 3.5)
[1]; [8]
  Change in HSS at PG3.0 mmol/l, least-squares mean: 1.8
[1]; [9]
  Change in HSS at PGnadir, least-squares mean: 6.0
[1]; triple dose
  Change in HSS at PGnadir, treatment difference (95% CI) icodec vs glargine U100: 0.5 (-2.7, 3.6)
[1]; [10]
  Change in HSS at PG3.0 mmol/l, least-squares mean: 2.2
[1]; [11]
  Change in HSS at PGnadir, least-squares mean: 5.4
[1]; [12]
  Change in HSS at PG3.0 mmol/l, treatment difference (95% CI) icodec vs glargine U100: -0.4 (-2.6, 1.8)
[1]; triple dose, listed as icodec
  Change in HSS at PG3.0 mmol/l, treatment difference (95% CI) icodec vs glargine U100: −0.4
[2]; double dose
  Change in TMB at PG3.0 mmol/l, treatment difference (95% CI) icodec vs glargine U100: 0.4 (-0.3, 1.0)
  Change in TMB at PGnadir, treatment difference (95% CI) icodec vs glargine U100: 0.3 (-0.2, 0.9)
[2]; [13]
  Change in TMB at PG3.0 mmol/l, least-squares mean: 0.3 s
[2]; double dose, n=18 icodec, 18 glargine U100
  Change in TMB at PGnadir, least-squares mean: 0.3 s
[2]; triple dose
  Change in TMB at PG3.0 mmol/l, treatment difference (95% CI) icodec vs glargine U100: -0.1 (-0.4, 0.2)
  Change in TMB at PGnadir, treatment difference (95% CI) icodec vs glargine U100: -0.1 (-0.3, 0.1)
[2]; [14]
  Change in TMB at PGnadir, least-squares mean: -0.0 s
[2]; triple dose, n=20 icodec, 26 glargine U100
  Change in TMB at PG3.0 mmol/l, least-squares mean: -0.0 s
glucagon; double dose
  Glucagon at PG3.0 mmol/l, treatment ratio (95% CI) icodec vs glargine U100: 0.83 (0.59, 1.16)
  Glucagon at PGnadir, treatment ratio (95% CI) icodec vs glargine U100: 0.92 (0.69, 1.23)
glucagon; [8]
  Glucagon at PG3.0 mmol/l, estimated geometric mean: 39.6 ng/L
glucagon; double dose, n=19 icodec, 19 glargine U100
  Glucagon at PGnadir, estimated geometric mean: 48.9 ng/L
glucagon; triple dose
  Glucagon at PGnadir, treatment ratio (95% CI) icodec vs glargine U100: 1.01 (0.74, 1.38)
glucagon; [12]
  Glucagon at PG3.0 mmol/l, treatment ratio (95% CI) icodec vs glargine U100: 1.07 (0.86, 1.33)
glucagon; triple dose, listed as icodec
  Glucagon at PG3.0 mmol/l, treatment ratio (95% CI) icodec vs glargine U100: 1.07
glucagon; [10]
  Glucagon at PG3.0 mmol/l, estimated geometric mean: 55.2 ng/L
glucagon; [11]
  Glucagon at PGnadir, estimated geometric mean: 59.8 ng/L
[3]; double dose
  Change in DBP at PG3.0 mmol/l, treatment difference (95% CI) icodec vs glargine U100: 1.7 (-3.1, 6.4)
  Change in DBP at PGnadir, treatment difference (95% CI) icodec vs glargine U100: 0.5 (-4.0, 4.9)
  Change in SBP at PG3.0 mmol/l, treatment difference (95% CI) icodec vs glargine U100: 3.7 (-4.3, 11.7)
  Change in SBP at PGnadir, treatment difference (95% CI) icodec vs glargine U100: -5.2 (-16.5, 6.1)
  Change in pulse at PG3.0 mmol/l, treatment difference (95% CI) icodec vs glargine U100: -0.9 (-7.4, 5.7)
  Change in pulse at PGnadir, treatment difference (95% CI) icodec vs glargine U100: 0.2 (-5.0, 5.4)
[3]; [8]
  Change in SBP at PG3.0 mmol/l, least-squares mean: -4.9 mmHg
  Change in pulse at PG3.0 mmol/l, least-squares mean: -1.3 beats/min
[3]; [9]
  Change in DBP at PGnadir, least-squares mean: -5.4 mmHg
  Change in SBP at PGnadir, least-squares mean: -7.7 mmHg
  Change in pulse at PGnadir, least-squares mean: 1.2 beats/min
[3]; double dose, supine, n=17 icodec, 15 glargine U100
  Change in DBP at PG3.0 mmol/l, least-squares mean: -6.1 mmHg
[3]; triple dose
  Change in DBP at PG3.0 mmol/l, treatment difference (95% CI) icodec vs glargine U100: 0.8 (-3.4, 5.0)
  Change in DBP at PGnadir, treatment difference (95% CI) icodec vs glargine U100: 3.6 (-0.8, 8.0)
  Change in SBP at PG3.0 mmol/l, treatment difference (95% CI) icodec vs glargine U100: 0.7 (-6.6, 8.0)
  Change in SBP at PGnadir, treatment difference (95% CI) icodec vs glargine U100: 3.9 (-2.2, 10.0)
  Change in pulse at PG3.0 mmol/l, treatment difference (95% CI) icodec vs glargine U100: 0.8 (-4.4, 5.9)
  Change in pulse at PGnadir, treatment difference (95% CI) icodec vs glargine U100: 0.5 (-4.8, 5.7)
[3]; [10]
  Change in DBP at PG3.0 mmol/l, least-squares mean: -2.4 mmHg
  Change in SBP at PG3.0 mmol/l, least-squares mean: -0.9 mmHg
  Change in pulse at PG3.0 mmol/l, least-squares mean: 3.1 beats/min
[3]; [11]
  Change in DBP at PGnadir, least-squares mean: -1.1 mmHg
  Change in SBP at PGnadir, least-squares mean: 1.8 mmHg
  Change in pulse at PGnadir, least-squares mean: 2.8 beats/min
[4]; double dose
  Change in 4CRT correctness at PG3.0 mmol/l, treatment difference (95% CI) icodec vs glargine U100: 0.2 (-1.1, 1.4)
  Change in 4CRT correctness at PGnadir, treatment difference (95% CI) icodec vs glargine U100: -0.2 (-1.3, 0.9)
  Change in 4CRT response time at PG3.0 mmol/l, treatment difference (95% CI) icodec vs glargine U100: -79.7 (-170.4, 10.9)
  Change in 4CRT response time at PGnadir, treatment difference (95% CI) icodec vs glargine U100: -97.1 (-230.5, 36.3)
[4]; [13]
  Change in 4CRT correctness at PG3.0 mmol/l, least-squares mean: 0.1 %-points
  Change in 4CRT response time at PG3.0 mmol/l, least-squares mean: 19.7 ms
[4]; [15]
  Change in 4CRT correctness at PGnadir, least-squares mean: -0.3 %-points
  Change in 4CRT response time at PGnadir, least-squares mean: 40.4 ms
[4]; triple dose
  Change in 4CRT correctness at PG3.0 mmol/l, treatment difference (95% CI) icodec vs glargine U100: 0.1 (-0.7, 0.9)
  Change in 4CRT correctness at PGnadir, treatment difference (95% CI) icodec vs glargine U100: 0.4 (-0.9, 1.7)
  Change in 4CRT response time at PG3.0 mmol/l, treatment difference (95% CI) icodec vs glargine U100: 11.8 (-44.0, 67.6)
  Change in 4CRT response time at PGnadir, treatment difference (95% CI) icodec vs glargine U100: -66.7 (-155.8, 22.4)
[4]; [14]
  Change in 4CRT correctness at PGnadir, least-squares mean: -0.3 %-points
  Change in 4CRT response time at PGnadir, least-squares mean: 21.3 ms
[4]; [16]
  Change in 4CRT correctness at PG3.0 mmol/l, least-squares mean: -0.3 %-points
  Change in 4CRT response time at PG3.0 mmol/l, least-squares mean: 55.4 ms
[5]; after double dose: first 2 weeks (icodec) / first 48 h (glargine U100), all participants
  Percentage time spent with glucose <3.9 mmol/l (CGM), mean±SD: 0.99±2.12%
[5]; after double dose: first 2 weeks (icodec) / first 48 h (glargine U100), all participants, induction period excluded
  Percentage time spent with glucose <3.0 mmol/l (CGM), mean±SD: 0.15±0.44%
[5]; [17]
  Percentage time spent with glucose <3.0 mmol/l (CGM), mean±SD: 0.21±0.45%
  Percentage time spent with glucose <3.9 mmol/l (CGM), mean±SD: 1.63±2.75%
[5]; after triple dose: first week (icodec) / first 48 h (glargine U100), all participants
  Percentage time spent with glucose <3.9 mmol/l (CGM), mean±SD: 1.56±3.54%
[5]; after triple dose: first week (icodec) / first 48 h (glargine U100), all participants, induction period excluded
  Percentage time spent with glucose <3.0 mmol/l (CGM), mean±SD: 0.29±1.24%
[5]; [18]
  Percentage time spent with glucose <3.0 mmol/l (CGM), mean±SD: 0.56±1.70%
  Percentage time spent with glucose <3.9 mmol/l (CGM), mean±SD: 2.67±4.71%
[6]; double dose, at PG3.0 mmol/l, n=9/17 icodec, 2/15 glargine U100
  Proportion of individuals answering 'Yes' to 'Do you feel hypo?': 52.9%
[6]; double dose, at PGnadir, n=14/20 icodec, 10/19 glargine U100
  Proportion of individuals answering 'Yes' to 'Do you feel hypo?': 70.0%
[6]; triple dose, at PG3.0 mmol/l, n=5/20 icodec, 8/28 glargine U100
  Proportion of individuals answering 'Yes' to 'Do you feel hypo?': 25.0%
[6]; triple dose, at PGnadir, n=9/20 icodec, 15/29 glargine U100
  Proportion of individuals answering 'Yes' to 'Do you feel hypo?': 45.0%
Adrenaline (epinephrine); double dose
  Adrenaline at PG3.0 mmol/l, treatment ratio (95% CI) icodec vs glargine U100: 0.90 (0.54, 1.52)
  Adrenaline at PGnadir, treatment ratio (95% CI) icodec vs glargine U100: 0.90 (0.62, 1.30)
Adrenaline (epinephrine); [8]
  Adrenaline at PG3.0 mmol/l, estimated geometric mean: 476.7 pmol/L
Adrenaline (epinephrine); [9]
  Adrenaline at PGnadir, estimated geometric mean: 530.4 pmol/L
Adrenaline (epinephrine); triple dose
  Adrenaline at PG3.0 mmol/l, treatment ratio (95% CI) icodec vs glargine U100: 2.54
  Adrenaline at PGnadir, treatment ratio (95% CI) icodec vs glargine U100: 1.29 (0.88, 1.89)
Adrenaline (epinephrine); [10]
  Adrenaline at PG3.0 mmol/l, estimated geometric mean: 793.8 pmol/L
Adrenaline (epinephrine); [11]
  Adrenaline at PGnadir, estimated geometric mean: 735.8 pmol/L
[7]; from end of hypoglycaemia induction experiment until 1 week after triple dose
  Number of level 2 hypoglycaemic episodes: six episodes in five individuals
[7]; from end of hypoglycaemia induction experiment until 2 weeks after double dose
  Number of level 2 hypoglycaemic episodes: four episodes in three individuals
[7]; over both doses, treatment periods, outside induction
  Duration of level 2 hypoglycaemic episodes, mean±SD: 25.3 ± 8.5 min
[7]; treatment periods
  AE rate: 10.9 AEs per participant-year of exposure
[7]; [19]
  Rate of clinically significant hypoglycaemic episodes (level 2, PG <3.0 mmol/l): 3.4 episodes per participant-year of exposure
  Severe hypoglycaemic episodes (level 3): no severe hypoglycaemic episodes
[7]; treatment periods, exposure 4.8 participant-years icodec, 1.6 glargine U100
  Number of AEs reported: 52 AEs
